Consider nine molecules from patent publication US20210122785A1 (Bicycle, published 2021).

Starred links: 1 amine or outer side, 2 acyl side, 3 side chain; linkers in the order of their positions; H or OH if unused. Positions of bridges follow the written chain, without caps; N, C: chain ends. Non-standard residues stand in square brackets, D forms with d. No end group written: not given here. TBMB = c1c(C[*:1])cc(C[*:3])cc1C[*:2]; Dap(Me) = CNC[C@H](N)C(=O)O

The chains are these.
B1: BCY00008653 (peptide)
peptide: Ac-A[Dap(Me)]PQDLELCTFLFGD[Dap(Me)]A
modifications: linker 2-9-16 via TBMB
notes: Bicyclic peptide on a TBMB scaffold; first and third cysteines of BCY00008655 replaced by Dap(Me); also called Ac-(28-06)(TBMB) Cys13Dap(Me)
B2: BCY00008655 (peptide)
peptide: Ac-ACPQDLELCTFLFGDCA
modifications: linker 2-9-16 via TBMB
notes: Bicyclic peptide on a TBMB scaffold; also called Ac-(28-06)(TBMB)
B3: BCY00008649 (peptide)
peptide: Ac-ACPQDLEL[Dap(Me)]TFLFGDCA
modifications: linker 2-9-16 via TBMB
notes: Bicyclic peptide on a TBMB scaffold; second cysteine of BCY00008655 replaced by Dap(Me); also called Ac-(28-06)(TBMB) Cys2Dap(Me)
B4: BCY00008651 (peptide)
peptide: Ac-A[Dap(Me)]PQDLEL[Dap(Me)]TFLFGDCA
modifications: linker 2-9-16 via TBMB
notes: Bicyclic peptide on a TBMB scaffold; first and second cysteines of BCY00008655 replaced by Dap(Me); also called Ac-(28-06)(TBMB) Cys12Dap(Me)
B5: BCY00008648 (peptide)
peptide: Ac-A[Dap(Me)]PQDLELCTFLFGDCA
modifications: linker 2-9-16 via TBMB
notes: Bicyclic peptide on a TBMB scaffold; first cysteine of BCY00008655 replaced by Dap(Me); also called Ac-(28-06)(TBMB) Cys1Dap(Me)
B6: BCY00008654 (peptide)
peptide: Ac-A[Dap(Me)]PQDLEL[Dap(Me)]TFLFGD[Dap(Me)]A
modifications: linker 2-9-16 via TBMB
notes: Bicyclic peptide on a TBMB scaffold; all three cysteines of BCY00008655 replaced by Dap(Me); also called Ac-(28-06)(TBMB) Cys123Dap(Me)

The target of the first assay is T1, IL-17A (UniProt Q16552 24-155).
T1 construct: also called Interleukin-17
T1 sequence (looked up): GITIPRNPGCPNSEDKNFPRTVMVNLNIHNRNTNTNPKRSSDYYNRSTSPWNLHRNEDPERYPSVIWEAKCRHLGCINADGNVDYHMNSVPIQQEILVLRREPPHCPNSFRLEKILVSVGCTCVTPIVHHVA
The assay can be described thus: IL-17A binding assay, method analogous to WO 2011/141823; mean of n1 and n2.
With B1, affinity was put at a Ki of 129 nM.

B2 yielded an inhibition constant (Ki) of 93 nM.

B3 registered an inhibitory constant (Ki) of 60.2 nM.

B4 yielded a Ki of 264 nM.

B5 registered a Ki of 116 nM.

Consider B6, for which the Ki turned out to be 94.7 nM.

For a further assay, the target named is T1, IL-17A. The experiment in a line: IL-17A binding assay, method analogous to WO 2011/141823; replicate n1.
Molecule B1 registered a Ki of 173 nM.

Molecule B2 gave a Ki of 78.8 nM.

Regarding B3, the Ki amounted to 60.8 nM.

Molecule B4 gave a Ki of 298 nM.

On to B5, for which the inhibitory constant (Ki) turned out to be 127 nM.

As for B6, the affinity, expressed as Ki, was 100 nM.

For a further assay, the target named is T1, IL-17A. The experiment in a line: IL-17A binding assay, method analogous to WO 2011/141823; replicate n2.
With B1, the affinity, expressed as Ki, was 85.9 nM.

For the molecule B2, the Ki was determined as 107 nM.

For the molecule B3, the Ki was 59.6 nM.

B4 registered a Ki of 231 nM.

For the molecule B5, the affinity corresponds to a Ki of 105 nM.

In the case of B6, the affinity corresponds to a Ki of 89.3 nM.

The next assay concerns the target T2, hIL17-A (human, UniProt Q16552 24-155).
T2 construct: also called human IL-17A
T2 sequence (looked up): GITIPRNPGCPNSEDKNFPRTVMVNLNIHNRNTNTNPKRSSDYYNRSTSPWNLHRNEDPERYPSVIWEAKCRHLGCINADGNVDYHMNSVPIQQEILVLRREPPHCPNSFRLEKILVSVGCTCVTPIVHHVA
The assay can be described thus: IL-17 binding assay (Kd), as described in GB1720932.1.
CPENELYCFLSSQQC (linker 1-8-15 via TBMB) [Reference Example A2, CPENELYCFLSSQQC]: the Kd was 398 nM.

For the next assay, the target named is T3, hIL17-F (human, UniProt Q96PD4 31-163).
T3 construct: also called human IL-17F
T3 sequence (looked up): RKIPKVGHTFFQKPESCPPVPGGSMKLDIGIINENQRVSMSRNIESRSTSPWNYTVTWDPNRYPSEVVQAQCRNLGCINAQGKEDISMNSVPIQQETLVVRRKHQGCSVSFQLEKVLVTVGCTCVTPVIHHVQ
Described as above.
For ACGYDYYCALYDICA (linker 2-8-14 via TBMB) [Reference Example A5, A-…-A], the Kd came to 198 nM.

Molecule ACLWKDNCTHWSLCA (linker 2-8-14 via TBMB) [Reference Example A6, A-CLWKDNCTHWSLC-A] gave a Kd of 392 nM.

Usually Ki stands for the equilibrium dissociation constant of an inhibitor or competing ligand from its target. A lower Ki goes with higher affinity. In general, Kd refers to the constant that tells how readily two partners part at equilibrium. A high value points to a looser complex.
